What is called stoichiometry N is a count of units in the complex or per binding partner.

The source of these data is publication PMC8905165, “Reconstitution of an active human CENP-E motor” (Open Biology, 2022).

Series [1] concerns the molecule itself. In words: single-molecule photobleaching step counting and initial intensity analysis (TIRF); 0.5 nM fluorescently tagged motor adsorbed non-specifically to silanized coverslips, BRB80 with oxygen scavenger mix, 30°C; monomer to dimer.
Series [2] deals with the molecule itself. In words: native gel or EMSA; native PAGE of purified CENP-E483-2mNeon; monomer to dimer.

B1: CENP-E754-2mNeon (domain or fragment, human, UniProt Q02224 1-754, looked up)
chain: MAEEGAVAVCVRVRPLNSREESLGETAQVYWKTDNNVIYQVDGSKSFNFDRVFHGNETTKNVYEEIAAPIIDSAIQGYNGTIFAYGQTASGKTYTMMGSEDHLGVIPRAIHDIFQKIKKFPDREFLLRVSYMEIYNETITDLLCGTQKMKPLIIREDVNRNVYVADLTEEVVYTSEMALKWITKGEKSRHYGETKMNQRSSRSHTIFRMILESREKGEPSNCEGSVKVSHLNLVDLAGSERAAQTGAAGVRLKEGCNINRSLFILGQVIKKLSDGQVGGFINYRDSKLTRILQNSLGGNAKTRIICTITPVSFDETLTALQFASTAKYMKNTPYVNEVSTDEALLKRYRKEIMDLKKQLEEVSLETRAQAMEKDQLAQLLEEKDLLQKVQNEKIENLTRMLVTSSSLTLQQELKAKRKRRVTWCLGKINKMKNSNYADQFNIPTNITTKTHKLSINLLREIDESVCSESDVFSNTLDTLSEIEWNPATKLLNQENIESELNSLRADYDNLVLDYEQLRTEKEEMELKLKEKNDLDEFEALERKTKKDQEMQLIHEISNLKNLVKHAEVYNQDLENELSSKVELLREKEDQIKKLQEYIDSQKLENIKMDLSYSLESIEDPKQMKQTLFDAETVALDAKRESAFLRSENLELKEKMKELATTYKQMENDIQLYQSQLEAKKKMQVDLEKELQSAFNEITKLTSLIDGKVPKDLLCNLELEGKITDLQKELNKEVEENEALREEVILLSELKSLPS
notes: human CENP-E, N-terminal truncation with the motor domain and five predicted coiled-coils of the native stalk, ending at residue 754; The methods call it a dimeric motor; the self-association row is of one chain with another; also called truncated CENP-E; source: Sf9 cells (baculovirus), purified (HisTrap, Superose 6); not shown: mNeonGreen (2 x tandem), C-terminal, kept
For B1, the binding result in series [1] is given as “binds”.

B2: CENP-E483-2mNeon (domain or fragment, human, UniProt Q02224 1-483, looked up)
chain: MAEEGAVAVCVRVRPLNSREESLGETAQVYWKTDNNVIYQVDGSKSFNFDRVFHGNETTKNVYEEIAAPIIDSAIQGYNGTIFAYGQTASGKTYTMMGSEDHLGVIPRAIHDIFQKIKKFPDREFLLRVSYMEIYNETITDLLCGTQKMKPLIIREDVNRNVYVADLTEEVVYTSEMALKWITKGEKSRHYGETKMNQRSSRSHTIFRMILESREKGEPSNCEGSVKVSHLNLVDLAGSERAAQTGAAGVRLKEGCNINRSLFILGQVIKKLSDGQVGGFINYRDSKLTRILQNSLGGNAKTRIICTITPVSFDETLTALQFASTAKYMKNTPYVNEVSTDEALLKRYRKEIMDLKKQLEEVSLETRAQAMEKDQLAQLLEEKDLLQKVQNEKIENLTRMLVTSSSLTLQQELKAKRKRRVTWCLGKINKMKNSNYADQFNIPTNITTKTHKLSINLLREIDESVCSESDVFSNTLDTLSEIE
notes: human CENP-E, N-terminal truncation with the motor domain and the first predicted coiled-coil (334-401), ending at residue 483; the start at residue 1 is printed only for the ColabFold input (1-483); Codon-optimised synthetic gene in pFastBac1; A mixture of monomers and dimers in solution; also called truncated human CENP-E; minimal human CENP-E motor; source: Sf9 cells (baculovirus), purified …
For the protein B2, the “stoichiometry N” value in series [2] amounted to 2.
